Literature values, collected in patent US20140213534A1, “INTESTINAL HYPERPERMEABILITY AND PREVENTION OF SYSTEMIC DISEASE” (Thomas Jefferson University, priority 2011, published 2014).

Molecular target: ST receptors (Homo sapiens, UniProt P25092)
Conditions: relative to native ST; Currie et al. 1992

ST receptors, sequence (P25092 24-1073): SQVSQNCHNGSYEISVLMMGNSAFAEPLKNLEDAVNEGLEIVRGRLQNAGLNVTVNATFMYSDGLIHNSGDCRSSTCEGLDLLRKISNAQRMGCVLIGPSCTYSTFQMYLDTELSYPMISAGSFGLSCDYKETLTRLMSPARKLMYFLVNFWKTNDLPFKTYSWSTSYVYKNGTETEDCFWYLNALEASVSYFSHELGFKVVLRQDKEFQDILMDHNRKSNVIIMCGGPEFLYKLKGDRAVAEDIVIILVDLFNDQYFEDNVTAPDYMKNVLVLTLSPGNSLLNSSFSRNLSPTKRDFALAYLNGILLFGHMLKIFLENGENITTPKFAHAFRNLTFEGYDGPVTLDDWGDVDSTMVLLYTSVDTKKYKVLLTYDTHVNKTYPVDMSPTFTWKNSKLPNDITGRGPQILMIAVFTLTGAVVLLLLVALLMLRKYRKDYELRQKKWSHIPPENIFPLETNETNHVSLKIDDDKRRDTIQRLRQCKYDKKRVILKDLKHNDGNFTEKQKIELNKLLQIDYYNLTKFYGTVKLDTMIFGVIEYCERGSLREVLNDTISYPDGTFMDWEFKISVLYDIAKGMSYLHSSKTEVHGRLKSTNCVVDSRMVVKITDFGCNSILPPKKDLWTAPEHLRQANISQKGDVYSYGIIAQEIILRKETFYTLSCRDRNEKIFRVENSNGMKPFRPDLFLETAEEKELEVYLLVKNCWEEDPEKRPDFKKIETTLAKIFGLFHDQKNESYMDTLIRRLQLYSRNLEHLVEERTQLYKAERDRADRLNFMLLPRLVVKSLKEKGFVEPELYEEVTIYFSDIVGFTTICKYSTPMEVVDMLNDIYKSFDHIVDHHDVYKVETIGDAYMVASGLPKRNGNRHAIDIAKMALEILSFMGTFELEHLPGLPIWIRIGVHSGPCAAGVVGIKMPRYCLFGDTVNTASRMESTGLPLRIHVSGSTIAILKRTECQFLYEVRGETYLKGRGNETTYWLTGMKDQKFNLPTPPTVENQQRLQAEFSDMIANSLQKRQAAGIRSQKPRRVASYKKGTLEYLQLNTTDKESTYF

activates guanylate cyclase at a level fold less than native ST: 10- to 100 fold
Substance: Guanylin: 15 amino acid peptide with about 50% sequence homology to ST, identified in mammalian intestine; endogenous GCC agonist (PNTCEICAYAACTGC; Rattus Norvegious)
